Results taken from patent US20160297852A1 (FORSCHUNGSZENTRUM JUELICH, published 2016).
Where no end group is shown, it is not given here. [ ]: non-standard residue; d: D form.

Target: A beta oligomers of the QIAD test (A beta aggregated under controlled conditions) (UniProt P05067 672-713, limits assumed)
Test: cell-based or functional assay

Sequence of A beta oligomers of the QIAD test (A beta aggregated under controlled conditions) (P05067 672-713 limits assumed): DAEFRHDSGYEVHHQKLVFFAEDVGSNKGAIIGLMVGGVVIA

| QIAD: reduction of oligomers in % | Binder |
| --- | --- |
| 98% | [dR][dP][dR][dT][dR][dL][dH][dT][dH][dR][dN][dR][dR][dP][dR][dT][dR][dL][dH][dT][dH][dR][dN][dR]-NH2 (N-terminus assumed; SMILES CC(C)C[C@@H](NC(=O)[C@@H](CCCNC(=N)N)NC(=O)[C@H](NC(=O)[C@@H](CCCNC(=N)N)NC(=O)[C@H]1CCCN1C(=O)[C@H](N)CCCNC(=N)N)[C@H](C)O)C(=O)N[C@H](Cc1c[nH]cn1)C(=O)N[C@@H](C(=O)N[C@H](Cc1c[nH]cn1)C(=O)N[C@H](CCCNC(=N)N)C(=O)N[C@H](CC(N)=O)C(=O)N[C@H](CCCNC(=N)N)C(=O)N[C@H](CCCNC(=N)N)C(=O)N1CCC[C@@H]1C(=O)N[C@H](CCCNC(=N)N)C(=O)N[C@@H](C(=O)N[C@H](CCCNC(=N)N)C(=O)N[C@H](CC(C)C)C(=O)N[C@H](Cc1c[nH]cn1)C(=O)N[C@@H](C(=O)N[C@H](Cc1c[nH]cn1)C(=O)N[C@H](CCCNC(=N)N)C(=O)N[C@H](CC(N)=O)C(=O)N[C@H](CCCNC(=N)N)C(N)=O)[C@H](C)O)[C@H](C)O)[C@H](C)O) [D3D3 amidated] |
| 88% | [dR][dP][dR][dT][dR][dL][dH][dT][dH][dR][dN][dR][dP][dT][dL][dH][dT][dH][dN][dR][dR][dR][dR][dR]-NH2 (N-terminus assumed; SMILES CC(C)C[C@@H](NC(=O)[C@@H](CCCNC(=N)N)NC(=O)[C@H](NC(=O)[C@@H](CCCNC(=N)N)NC(=O)[C@H]1CCCN1C(=O)[C@H](N)CCCNC(=N)N)[C@H](C)O)C(=O)N[C@H](Cc1c[nH]cn1)C(=O)N[C@@H](C(=O)N[C@H](Cc1c[nH]cn1)C(=O)N[C@H](CCCNC(=N)N)C(=O)N[C@H](CC(N)=O)C(=O)N[C@H](CCCNC(=N)N)C(=O)N1CCC[C@@H]1C(=O)N[C@@H](C(=O)N[C@H](CC(C)C)C(=O)N[C@H](Cc1c[nH]cn1)C(=O)N[C@@H](C(=O)N[C@H](Cc1c[nH]cn1)C(=O)N[C@H](CC(N)=O)C(=O)N[C@H](CCCNC(=N)N)C(=O)N[C@H](CCCNC(=N)N)C(=O)N[C@H](CCCNC(=N)N)C(=O)N[C@H](CCCNC(=N)N)C(=O)N[C@H](CCCNC(=N)N)C(N)=O)[C@H](C)O)[C@H](C)O)[C@H](C)O) [D3RD2 amidated] |
| 56% | [dR][dP][dR][dT][dR][dL][dH][dT][dH][dR][dN][dR]-NH2 (N-terminus assumed; SMILES CC(C)C[C@@H](NC(=O)[C@@H](CCCNC(=N)N)NC(=O)[C@H](NC(=O)[C@@H](CCCNC(=N)N)NC(=O)[C@H]1CCCN1C(=O)[C@H](N)CCCNC(=N)N)[C@H](C)O)C(=O)N[C@H](Cc1c[nH]cn1)C(=O)N[C@@H](C(=O)N[C@H](Cc1c[nH]cn1)C(=O)N[C@H](CCCNC(=N)N)C(=O)N[C@H](CC(N)=O)C(=O)N[C@H](CCCNC(=N)N)C(N)=O)[C@H](C)O) [D3 amidated] |
| 78% | [dP][dT][dL][dH][dT][dH][dN][dR][dR][dR][dR][dR]-NH2 (N-terminus assumed; SMILES CC(C)C[C@@H](NC(=O)[C@H](NC(=O)[C@H]1CCCN1)[C@H](C)O)C(=O)N[C@H](Cc1c[nH]cn1)C(=O)N[C@@H](C(=O)N[C@H](Cc1c[nH]cn1)C(=O)N[C@H](CC(N)=O)C(=O)N[C@H](CCCNC(=N)N)C(=O)N[C@H](CCCNC(=N)N)C(=O)N[C@H](CCCNC(=N)N)C(=O)N[C@H](CCCNC(=N)N)C(=O)N[C@H](CCCNC(=N)N)C(N)=O)[C@H](C)O) [RD2 amidated] |
| 97% | [dP][dT][dL][dH][dT][dH][dN][dR][dR][dR][dR][dR][dP][dT][dL][dH][dT][dH][dN][dR][dR][dR][dR][dR]-NH2 (N-terminus assumed; SMILES CC(C)C[C@@H](NC(=O)[C@H](NC(=O)[C@H]1CCCN1C(=O)[C@@H](CCCNC(=N)N)NC(=O)[C@@H](CCCNC(=N)N)NC(=O)[C@@H](CCCNC(=N)N)NC(=O)[C@@H](CCCNC(=N)N)NC(=O)[C@@H](CCCNC(=N)N)NC(=O)[C@@H](CC(N)=O)NC(=O)[C@@H](Cc1c[nH]cn1)NC(=O)[C@H](NC(=O)[C@@H](Cc1c[nH]cn1)NC(=O)[C@@H](CC(C)C)NC(=O)[C@H](NC(=O)[C@H]1CCCN1)[C@H](C)O)[C@H](C)O)[C@H](C)O)C(=O)N[C@H](Cc1c[nH]cn1)C(=O)N[C@@H](C(=O)N[C@H](Cc1c[nH]cn1)C(=O)N[C@H](CC(N)=O)C(=O)N[C@H](CCCNC(=N)N)C(=O)N[C@H](CCCNC(=N)N)C(=O)N[C@H](CCCNC(=N)N)C(=O)N[C@H](CCCNC(=N)N)C(=O)N[C@H](CCCNC(=N)N)C(N)=O)[C@H](C)O) [RD2RD2 amidated] |
| 100% | [dP][dT][dL][dH][dT][dH][dN][dR][dR][dR][dR][dR][dR][dP][dR][dT][dR][dL][dH][dT][dH][dR][dN][dR]-NH2 (N-terminus assumed; SMILES CC(C)C[C@@H](NC(=O)[C@@H](CCCNC(=N)N)NC(=O)[C@H](NC(=O)[C@@H](CCCNC(=N)N)NC(=O)[C@H]1CCCN1C(=O)[C@@H](CCCNC(=N)N)NC(=O)[C@@H](CCCNC(=N)N)NC(=O)[C@@H](CCCNC(=N)N)NC(=O)[C@@H](CCCNC(=N)N)NC(=O)[C@@H](CCCNC(=N)N)NC(=O)[C@@H](CCCNC(=N)N)NC(=O)[C@@H](CC(N)=O)NC(=O)[C@@H](Cc1c[nH]cn1)NC(=O)[C@H](NC(=O)[C@@H](Cc1c[nH]cn1)NC(=O)[C@@H](CC(C)C)NC(=O)[C@H](NC(=O)[C@H]1CCCN1)[C@H](C)O)[C@H](C)O)[C@H](C)O)C(=O)N[C@H](Cc1c[nH]cn1)C(=O)N[C@@H](C(=O)N[C@H](Cc1c[nH]cn1)C(=O)N[C@H](CCCNC(=N)N)C(=O)N[C@H](CC(N)=O)C(=O)N[C@H](CCCNC(=N)N)C(N)=O)[C@H](C)O) [RD2D3 amidated] |
